Measurements reported in patent US20040259802.

Target: T1, 19-mer (SEQ ID NO:11) cleavage domain peptide
T1 chain: PRCGNPDVANYNFFPRKPK

B1: Proenzyme pro-MMP-9 (protein)
chain: APRQRQSTLVLFPGDLRTNLTDRQLAEEYLYRYGYTRVAEMRGESKSLGPALLLLQKQLSLPETGELDSATLKAMRTPRCGVPDLGRFQTFEGDLKWHHHNITYWIQNYSEDLPRAVIDDAFARAFALWSAVTPLTFTRVYSRDADIVIQFGVAEHGDGYPFDGKDGLLAHAFPPGPGIQGDAHFDDDELWSLGKGVVVPTRFGNADGAACHFPFIFEGRSYSACTTDGRSDGLPWCSTTANYDTDDRFGFCPSERLYTQDGNADGKPCQFPFIFQGQSYSACTTDGRSDGYRWCATTANYDRDKLFGFCPTRADSTVMGGNSAGELCVFPFTFLGKEYSTCTSEGRGDGRLWCATTSNFDSDKKWGFCPDQGYSLFLVAAHEFGHALGLDHSSVPEALMYPMYRFTEGPPLHKDDVNGIRHLYGPRPEPEPRPPTTTTPQPTAPPTVCPTGPPTVHPSERPTAGPTGPPSAGPTGPPTAGPSTATTVPLSPVDDACNVNIFDAIAEIGNQLYLFKDGKYWRFSEGRGSRPQGPFLIADKWPALPRKLDSVFEERLSKKLFFFSGRQVWVYTGASVLGPRRLDKLGLGADVAQVTGALRSGRGKMLLFSGRRLWRFDVKAQMVDPRSASEVDRMFPGVPLDTHDVFQYREKAYFCQDRFYWRVSSRSELNQVDQVGYVTYDILQCPED
For B1, the “conversion of pro-MMP-9 into prodomain and active enzyme by stromilysin (HPLC splicing assay)” value was “Titrating the standard splicing reaction with the 19-mer (SEQ ID NO:11) peptide prevents the conversion of pro-MMP-9 into the prodomain and the active enzyme. Splicing can be inhibited in a dose dependent manner with micromolar 19-mer”.
